Changes are numbered by the printed parent chain. In names and notes the source's numbering stands.
B1: Rlp24 (ribosomal-like protein 24) on the pre-60S particle (natural protein)
chain: not shown
notes: Ribosomal-like protein 24 (Rlp24) of S. cerevisiae
B2: Bud20-TAP (natural protein, S. cerevisiae)
chain: MGRYSVKRYKTKRRTRDLDLIYNDLSTKESVQKLLNQPLDETKPGLGQHYCIHCAKYMETAIALKTHLKGKVHKRRVKELRGVPYTQEVSDAAAGYNLNKFLNRVQEITQSVGPEKESNEALLKEHLDSTLANVKTTEPTLPWAAADAEANTAAVTEAESTASAST
notes: Bud20 of S. cerevisiae; For cryo-EM the Protein A part of the tag was removed by TEV cleavage; source: expressed in S. cerevisiae crm1^T539C; bait of the pre-60S particle purification
B3: Drg1 (diazaborine resistance gene 1), wild type, purified (enzyme, S. cerevisiae)
chain: MAPKSSSSGSKKKSSASSNSADAKASKFKLPAEFITRPHPSKDHGKETCTAYIHPNVLSSLEINPGSFCTVGKIGENGILVIARAGDEEVHPVNVITLSTTIRSVGNLILGDRLELKKAQVQPPYATKVTVGSLQGYNILECMEEKVIQKLLDDSGVIMPGMIFQNLKTKAGDESIDVVITDASDDSLPDVSQLDLNMDDMYGGLDNLFYLSPPFIFRKGSTHITFSKETQANRKYNLPEPLSYAAVGGLDKEIESLKSAIEIPLHQPTLFSSFGVSPPRGILLHGPPGTGKTMLLRVVANTSNAHVLTINGPSIVSKYLGETEAALRDIFNEARKYQPSIIFIDEIDSIAPNRANDDSGEVESRVVATLLTLMDGMGAAGKVVVIAATNRPNSVDPALRRPGRFDQEVEIGIPDVDARFDILTKQFSRMSSDRHVLDSEAIKYIASKTHGYVGADLTALCRESVMKTIQRGLGTDANIDKFSLKVTLKDVESAMVDIRPSAMREIFLEMPKVYWSDIGGQEELKTKMKEMIQLPLEASETFARLGISAPKGVLLYGPPGCSKTLTAKALATESGINFLAVKGPEIFNKYVGESERAIREIFRKARSAAPSIIFFDEIDALSPDRDGSSTSAANHVLTSLLNEIDGVEELKGVVIVAATNRPDEIDAALLRPGRLDRHIYVGPPDVNARLEILKKCTKKFNTEESGVDLHELADRTEGYSGAEVVLLCQEAGLAAIMEDLDVAKVELRHFEKAFKGIARGITPEMLSYYEEFALRSGSSS
notes: Drg1 (AFG2), hexameric type-II AAA-ATPase of S. cerevisiae, wild type; Hexamer in the cryo-EM maps; also called DRG1 (AFG2); AAA-ATPase Drg1; source: overexpressed in yeast as GST fusion (CuSO4-induced), purified on GSH-agarose, eluted by Prescission protease cleavage
B4: Nog1 on the pre-60S particle (natural protein, UniProt Q02892 1-647, looked up)
chain: MQLSWKDIPTVAPANDLLDIVLNRTQRKTPTVIRPGFKITRIRAFYMRKVKYTGEGFVEKFEDILKGFPNINDVHPFHRDLMDTLYEKNHYKISLAAISRAKSLVEQVARDYVRLLKFGQSLFQCKQLKRAALGRMATIVKKLRDPLAYLEQVRQHIGRLPSIDPNTRTLLICGYPNVGKSSFLRCITKSDVDVQPYAFTTKSLYVGHFDYKYLRFQAIDTPGILDRPTEEMNNIEMQSIYAIAHLRSCVLYFMDLSEQCGFTIEAQVKLFHSIKPLFANKSVMVVINKTDIIRPEDLDEERAQLLESVKEVPGVEIMTSSCQLEENVMEVRNKACEKLLASRIENKLKSQSRINNVLNKIHVAQPQARDDVKRTPFIPESVKNLKKYDPEDPNRRKLARDIEAENGGAGVFNVNLKDKYLLEDDEWKNDIMPEILDGKNVYDFLDPEIAAKLQALEEEEEKLENEGFYNSDDEEEIYDGFEASEVDDIKEKAAWIRNRQKTMIAEARNRKSLKNKAIMPRSKLTKSFGKMEEHMSTLGHDMSALQDKQNRAARKNRYVERGSDVVFGDQDALTASTENGVKLRQTDRLLDGVADGSMRSKADRMAKMERRERNRHAKQGESDRHNAVSLSKHLFSGKRGVGKTDFR
notes: Nog1 of S. cerevisiae; source: endogenous, on pre-60S particles purified from S. cerevisiae via Bud20-TAP (cryo-EM, blots) or Arx1-TAP (cross-linking)
B5: GST-Rlp24C RKK>E (R191E, K195E, K196E) (domain or fragment, S. cerevisiae, UniProt Q07915 146-199, looked up)
chain: AKEQERAESVSEQEESEEEEEDMEIDSDEEEEEQLEKQKILLKNRERNTEEIAF
notes: Rlp24 of S. cerevisiae, C domain aa 146-199 with three exchanges in the tail; In the ATPase assay the HIS6-tagged form of this variant was used
B6: GST-Rlp24C (Rlp24 C domain, aa 146-199) (domain or fragment, S. cerevisiae, UniProt Q07915 146-199, looked up)
chain: B5 chain with E46R, E50K, E51K
notes: Ribosomal-like protein 24 (Rlp24) of S. cerevisiae, C domain, aa 146-199; In the ATPase assays a HIS6-tagged Rlp24C made in E. coli was used instead of the GST fusion; source: purified
B7: Arx1 on the pre-60S particle (natural protein, UniProt Q03862 1-593, looked up)
chain: MALAISHEDTQILLKDKNILQESVLNKYRTAGQIAQTALKYVTSLINDSYHSKTTQRQLTVPELCLLTDSFILTRLEQYYKNKVNERGIAIPTTIDIDQISGGWCPEIDDTQNLLNWNKGKDSTFASSVTGTLRPGDLVKITLGVHIDGYTSEVSHTMVIYPVDETKPILQPTGPLLGGKADAVAAAHIAMETVVALLACALTPEKLPASLGGTSSGITGQLIRTIVDTIARSYNCGVVPGSRVRRIRRFLAGQNEGIVAEREYKGVVWTESHQEADLLSNTDAKDLTVVDRGQSTPFTNVSAIPSDDFVVQSGEVYLIDLKMASLEHCTKKGLVTLETVDSYTGKSHKAGELIARPGAYVRDFAQTHILKLKTSRQLLTKIDKQGVYPFKLSHLSSNFPFVHENEEELQSLKKDLKSFRLGMSEISNNYLCVESPIQIARWVPWDHILKATNPNGNLSYDATSTLTLPGHELPLPKLGVSAIKLKSLMNSTKESISLPVARECNTIVLCDSSVSTTDRPELLRLTGGSKTCQPSWIHSQHELNPQDSIVQGIFQLATLAKDKRFGLLLKETQPMKQKSVETSNGGVEETMKM
notes: Arx1 of S. cerevisiae, maturation factor at the exit of the polypeptide exit tunnel; source: endogenous, on pre-60S particles purified via Bud20-TAP from S. cerevisiae crm1^T539C after LmB treatment

Assays:
[1] = target: B4; assay: cryo-EM structure; purified Drg1 (1.75 mg/ml, 12 µM) mixed 1:1 with 200 nM export-competent Bud20-TAP pre-60S particles, 2 mM ATPγS, 10 minutes; particle-bound Drg1 and free Drg1 hexamers picked from the same dataset; details: both partners purified
[2] = target: B1; assay: co-IP; affinity purification of pre-60S particles via Bud20-TAP from S. cerevisiae crm1^T539C (untreated, LmB and/or diazaborine; ARX1 or Δarx1 background), SDS-PAGE and western blotting; details: partners not purified
[3] = target: the molecule itself; assay: cryo-EM structure; purified Drg1 (1.75 mg/ml, 12 µM) mixed 1:1 with 200 nM export-competent Bud20-TAP pre-60S particles, 2 mM ATPγS, 10 minutes; particle-bound Drg1 and free Drg1 hexamers picked from the same dataset
[4] = target: export-competent pre-60S particle purified via Bud20-TAP (S. cerevisiae (endogenous in the yeast …, UniProt Q08004 1-166; Q07915 1-199; Q03862 1-593; Q02892 1-647; P38861 1-518; P33201 …, Partial protein list of a heterogeneous ~2.1 MDa endogenous particle: members named in the text plus L2-A, L3 and L4-A from the PDB 7Z34 candidate entities. Tif6 is not named in the text and is inferr); assay: SPR; Biacore X100; pre-60S particles captured through the Protein A moiety of Bud20-TAP on IgG immobilized on a CM3 chip; 25-150 nM Drg1 injected with 1 mM ATPγS; sigmoidal dose-response with variable slope on normalized RU; details: both partners purified
[5] = target: B3; assay: cross-linking; pre-60S particles purified via Arx1-TAP from drg1-18 (TEV eluate) incubated with 150 µg purified Drg1 and 1 mM ATPγS, cross-linked with 1.5 mM DSS or BS3 (isotopically labeled), 30 minutes, 30 °C; LC-MS/MS, xQuest/xProphet; details: both partners purified
[6] = target: B3; assay: pull-down; GST-tagged bait on GSH-agarose beads; 80 µg Drg1 in 120 µl binding buffer (20 mM HEPES-KOH, 150 mM potassium acetate, 5 mM magnesium acetate, 0.1% Tween-20, 1 mM DTT, pH 6.8); 1 mM ATP or ATPγS or no nucleotide; 60 minutes, room temperature; details: both partners purified
[7] = target: B3; assay: SPR; Biacore X100; GST-Rlp24C amine-coupled on a CM5 chip, GST in the reference cell; 75-10,000 nM Drg1 injected with 1 mM ATPγS; 20 mM HEPES, 10 mM KCl, 2.5 mM MgCl2, 100 mM NaCl, 0.05% Tween-20, 1 mM DTT, pH 7.5; one-site binding hyperbola on normalized RU; details: both partners purified
[8] = target: B3; assay: cryo-EM structure; purified Drg1 (1.75 mg/ml, 12 µM) mixed 1:1 with 200 nM export-competent Bud20-TAP pre-60S particles, 2 mM ATPγS, 10 minutes; particle-bound Drg1 and free Drg1 hexamers picked from the same dataset; details: both partners purified

Binder: B1
- binding result [1]: binds

Binder: B2
- binding result [2]: binds

Binder: B3
- stoichiometry N [3]: 6
- EC50 [4]: 0.046 µM

Binder: B4
- binding result [5]: binds

Binder: B5
- binding result [6]: binds

Binder: B6
- Kd [7]: 2.7 µM

Binder: B7
- binding result [8]: binds

Source: publication PMC9507969, “Visualizing maturation factor extraction from the nascent ribosome by the AAA-ATPase Drg1” (Nature Structural & Molecular Biology, 2022)
